From the Immune Epitope Database (IEDB)
Blank lines part the entries; values can stand above or below the sequence they belong to.

Columns and labels:
HLA-A*02:01 [1] = assay: IEDB peptide-MHC binding, purified MHC/competitive/radioactivity; ≥ and ≤ were set here for values at or beyond the usual limits of such assays
HLA-B*38:01 = assay: IEDB peptide-MHC binding, purified MHC/direct/fluorescence; filed as Kd, often an IC50 or EC50 that approximates it; ≥ and ≤ were set here for values at or beyond the usual limits of such assays
HLA-A*31:01 [2] = assay: as above
HLA-A*69:01 = assay: as above
HLA-A*01:01 = assay: as above
HLA-A*02:01 [3] = assay: as above
HLA-B*08:02 = assay: as above
HLA-B*48:01 = assay: as above
HLA-B*57:01 [4] = assay: as above
HLA-B*39:01 [5] = assay: as above
HLA-B*46:01 [6] = assay: as above
HLA-B*40:01 [7] = assay: as above
HLA-A*03:01 = assay: as above
HLA-B*58:01 = assay: as above
HLA-B*15:17 = assay: as above
HLA-B*15:09 [8] = assay: as above
HLA-B*08:01 [9] = assay: as above
HLA-A*26:01 = assay: as above
HLA-B*27:05 = assay: as above
HLA-A*11:01 [10] = assay: IEDB peptide-MHC binding, purified MHC/competitive/fluorescence; filed as Kd, often an IC50 or EC50 that approximates it; ≥ and ≤ were set here for values at or beyond the usual limits of such assays; details: source organism: Influenza A virus (A/duck/Hong Kong/3096/99(H6N2))
HLA-B*15:01 [11] = assay: as above
HLA-A*11:01 [12] = assay: IEDB peptide-MHC binding, purified MHC/direct/fluorescence; filed as Kd, often an IC50 or EC50 that approximates it; ≥ and ≤ were set here for values at or beyond the usual limits of such assays; details: source organism: Mycobacterium tuberculosis
HLA-B*15:01 [13] = assay: as above; details: source organism: Mycobacterium tuberculosis
HLA-B*18:01 = assay: as above; details: source organism: Mycobacterium tuberculosis
HLA-B*15:09 [14] = assay: IEDB peptide-MHC binding, purified MHC/competitive/fluorescence; filed as Kd, often an IC50 or EC50 that approximates it; ≥ and ≤ were set here for values at or beyond the usual limits of such assays; details: source organism: Mycobacterium tuberculosis str. Haarlem
HLA-A*02:01 [15] = assay: as above; details: source organism: Shigella boydii CDC 3083-94
HLA-B*39:01 [16] = assay: as above; details: source organism: Shigella boydii CDC 3083-94
HLA-B*40:01 [17] = assay: as above
HLA-B*07:02 = assay: as above; details: source organism: Shigella boydii CDC 3083-94
HLA-B*51:01 = assay: IEDB peptide-MHC binding, purified MHC/direct/fluorescence; filed as Kd, often an IC50 or EC50 that approximates it; ≥ and ≤ were set here for values at or beyond the usual limits of such assays; details: source organism: Mycobacterium tuberculosis
HLA-A*31:01 [18] = assay: IEDB peptide-MHC binding, purified MHC/competitive/fluorescence; filed as Kd, often an IC50 or EC50 that approximates it; ≥ and ≤ were set here for values at or beyond the usual limits of such assays; details: source organism: Mycobacterium tuberculosis variant bovis BCG str. Pasteur 1173P2
HLA-B*57:01 [19] = assay: as above; details: source organism: Mycobacterium tuberculosis variant bovis BCG str. Pasteur 1173P2
HLA-B*08:01 [20] = assay: as above; details: source organism: Mycobacterium tuberculosis variant bovis BCG str. Pasteur 1173P2
HLA-A*02:01 [21] = assay: IEDB peptide-MHC binding, purified MHC/competitive/radioactivity; filed as Kd, often an IC50 or EC50 that approximates it; ≥ and ≤ were set here for values at or beyond the usual limits of such assays; details: source organism: Homo sapiens
HLA-C*12:03 = assay: IEDB peptide-MHC binding, purified MHC/direct/fluorescence; filed as Kd, often an IC50 or EC50 that approximates it; ≥ and ≤ were set here for values at or beyond the usual limits of such assays
HLA-A*26:02 = assay: as above
HLA-B*46:01 [22] = assay: IEDB peptide-MHC binding, purified MHC/competitive/fluorescence; filed as Kd, often an IC50 or EC50 that approximates it; ≥ and ≤ were set here for values at or beyond the usual limits of such assays; details: source organism: Giardia lamblia ATCC 50803
HLA-C*14:02 = assay: IEDB peptide-MHC binding, purified MHC/direct/fluorescence; filed as Kd, often an IC50 or EC50 that approximates it; ≥ and ≤ were set here for values at or beyond the usual limits of such assays; details: source organism: Yellow fever virus
HLA-C*06:02 = assay: as above; details: source organism: Yellow fever virus
HLA-C*07:02 = assay: as above; details: source organism: Yellow fever virus
HLA-C*15:02 = assay: as above; details: source organism: Yellow fever virus
[23] = source organism: Influenza A virus(A/swine/Shandong/fZC/2003(H9N2))
[24] = source organism: Influenza A virus (A/swine/Miyagi/5/2003(H1N2))
[25] = source organism: Mycobacterium tuberculosis
[26] = source organism: Mycobacterium tuberculosis str. Haarlem
[27] = source organism: Shigella boydii CDC 3083-94
[28] = source organism: Escherichia coli 536
[29] = source organism: Giardia lamblia ATCC 50803
[30] = source organism: Yellow fever virus

Sequence: FLPADFFPSI
- IC50 (HLA-A*02:01 [1]; source organism: Hepatitis B virus): 0.016 µM

Sequence: GTEKLTITY
- Kd (HLA-B*38:01; [23]): ≥ 20 µM
- Kd (HLA-A*31:01 [2]; [24]): ≥ 20 µM
- Kd (HLA-A*69:01; [24]): ≥ 20 µM
- Kd (HLA-A*01:01; [24]): 0.0083 µM
- Kd (HLA-A*02:01 [3]; [24]): ≥ 20 µM
- Kd (HLA-B*08:02; [23]): ≥ 20 µM
- Kd (HLA-B*48:01; [24]): ≥ 20 µM
- Kd (HLA-B*57:01 [4]; [24]): ≥ 20 µM
- Kd (HLA-B*39:01 [5]; [23]): ≥ 20 µM
- Kd (HLA-B*46:01 [6]; [24]): ≥ 20 µM
- Kd (HLA-B*40:01 [7]; [24]): ≥ 20 µM
- Kd (HLA-A*03:01; [24]): ≥ 20 µM
- Kd (HLA-B*58:01; [24]): ≥ 20 µM
- Kd (HLA-B*15:17; [24]): 0.0065 µM
- Kd (HLA-B*15:09 [8]; [23]): ≥ 20 µM
- Kd (HLA-B*08:01 [9]; [23]): ≥ 20 µM
- Kd (HLA-A*26:01; [23]): ≥ 20 µM
- Kd (HLA-B*27:05; [24]): ≥ 20 µM
- Kd (HLA-A*11:01 [10]): ≥ 20 µM
- Kd (HLA-B*15:01 [11]; source organism: Influenza A virus (A/duck/Hong Kong/3096/99(H6N2))): ≥ 20 µM

Sequence: IPAPGLGAL
- Kd (HLA-A*31:01 [2]; [25]): ≥ 20 µM
- Kd (HLA-A*69:01; [25]): 0.24 µM
- Kd (HLA-A*01:01; [25]): ≥ 20 µM
- Kd (HLA-A*02:01 [3]; [25]): ≥ 20 µM
- Kd (HLA-A*11:01 [12]): ≥ 20 µM
- Kd (HLA-B*48:01; [25]): ≥ 20 µM
- Kd (HLA-B*57:01 [4]; [25]): ≥ 20 µM
- Kd (HLA-B*15:01 [13]): ≥ 20 µM
- Kd (HLA-B*46:01 [6]; [25]): ≥ 20 µM
- Kd (HLA-B*18:01): ≥ 20 µM
- Kd (HLA-B*40:01 [7]; [25]): ≥ 20 µM
- Kd (HLA-A*03:01; [25]): ≥ 20 µM
- Kd (HLA-B*58:01; [25]): ≥ 20 µM
- Kd (HLA-B*15:17; [25]): ≥ 20 µM
- Kd (HLA-B*08:01 [9]; [26]): ≥ 20 µM
- Kd (HLA-A*26:01; [26]): 11.1 µM
- Kd (HLA-B*27:05; [25]): ≥ 20 µM
- Kd (HLA-B*15:09 [14]): 4.06 µM

Sequence: QEPGIFCAI
- Kd (HLA-A*02:01 [15]): 0.116 µM
- Kd (HLA-B*39:01 [16]): 0.496 µM
- Kd (HLA-B*15:01 [11]; [27]): ≥ 20 µM
- Kd (HLA-B*40:01 [17]; [27]): 0.0105 µM
- Kd (HLA-B*07:02): ≥ 20 µM

Sequence: RIRSERPAF
- Kd (HLA-A*69:01; [25]): ≥ 20 µM
- Kd (HLA-A*01:01; [25]): ≥ 20 µM
- Kd (HLA-A*02:01 [3]; [25]): ≥ 20 µM
- Kd (HLA-A*11:01 [12]): ≥ 20 µM
- Kd (HLA-B*48:01; [25]): ≥ 20 µM
- Kd (HLA-B*51:01): ≥ 20 µM
- Kd (HLA-B*39:01 [5]; [26]): ≥ 20 µM
- Kd (HLA-B*15:01 [13]): 0.0278 µM
- Kd (HLA-B*46:01 [6]; [25]): ≥ 20 µM
- Kd (HLA-B*18:01): ≥ 20 µM
- Kd (HLA-B*40:01 [7]; [25]): ≥ 20 µM
- Kd (HLA-A*03:01; [26]): 0.381 µM
- Kd (HLA-B*58:01; [25]): ≥ 20 µM
- Kd (HLA-B*15:09 [8]; [26]): ≥ 20 µM
- Kd (HLA-B*27:05; [25]): ≥ 20 µM
- Kd (HLA-A*31:01 [18]): 0.982 µM
- Kd (HLA-B*57:01 [19]): 0.935 µM
- Kd (HLA-B*08:01 [20]): 2.25 µM

- IC50 (HLA-A*02:01 [1]; source organism: Homo sapiens): 1.77 µM
Sequence: RQASIELPSMAV

Sequence: SLYNAVATL
- IC50 (HLA-A*02:01 [1]; source organism: Human immunodeficiency virus 1): 0.029 µM

Sequence: VPRDRNGTF
- Kd (HLA-B*38:01; [26]): ≥ 20 µM
- Kd (HLA-A*31:01 [2]; [25]): ≥ 20 µM
- Kd (HLA-A*69:01; [25]): ≥ 20 µM
- Kd (HLA-A*01:01; [25]): ≥ 20 µM
- Kd (HLA-A*02:01 [3]; [25]): ≥ 20 µM
- Kd (HLA-A*11:01 [12]): ≥ 20 µM
- Kd (HLA-B*08:02; [26]): 19 µM
- Kd (HLA-B*48:01; [25]): ≥ 20 µM
- Kd (HLA-B*51:01): ≥ 20 µM
- Kd (HLA-B*57:01 [4]; [25]): ≥ 20 µM
- Kd (HLA-B*15:01 [13]): ≥ 20 µM
- Kd (HLA-B*46:01 [6]; [25]): ≥ 20 µM
- Kd (HLA-B*18:01): ≥ 20 µM
- Kd (HLA-B*40:01 [7]; [25]): ≥ 20 µM
- Kd (HLA-A*03:01; [25]): ≥ 20 µM
- Kd (HLA-B*58:01; [25]): ≥ 20 µM
- Kd (HLA-B*15:17; [25]): ≥ 20 µM
- Kd (HLA-B*15:09 [8]; [26]): ≥ 20 µM
- Kd (HLA-B*08:01 [9]; [26]): 0.624 µM
- Kd (HLA-B*27:05; [25]): ≥ 20 µM

- IC50 (HLA-A*02:01 [1]; source organism: Homo sapiens): 0.0025 µM
- Kd (HLA-A*02:01 [21]): 0.0084 µM
Sequence: VVLSWAPPV

- Kd (HLA-B*15:01 [11]; [28]): 3.5 µM
- Kd (HLA-B*40:01 [17]; [28]): 0.0043 µM
Sequence: YEDEDIIVI

Sequence: YSAEALLPY
- Kd (HLA-C*12:03; [29]): 0.013 µM
- Kd (HLA-A*26:02; [29]): 0.003 µM
- Kd (HLA-A*26:01; [29]): 0.009 µM
- Kd (HLA-B*46:01 [22]): 0.0551 µM

Sequence: YVIRDLAAM
- Kd (HLA-C*14:02): 0.079 µM
- Kd (HLA-C*06:02): ≥ 20 µM
- Kd (HLA-C*12:03; [30]): 0.023 µM
- Kd (HLA-C*07:02): 0.59 µM
- Kd (HLA-A*26:02; [30]): ≤ 0.001 µM
- Kd (HLA-C*15:02): 0.274 µM
